From the supplement of paper PMC5998384

What was measured:
HeLa Kyoto [1] = assay: solubility change mitosis vs G1/S (difference of NP-40 vs SDS log2 ratios) (log2 ratio difference); higher = more soluble in mitosis
HeLa Kyoto [2] = assay: thermal stability score vs G1/S (z-score of summed log2 fold changes over temperatures); higher = more thermally stable than in G1/S
HeLa Kyoto [3] = assay: solubility in G1/S (NP-40 vs SDS abundance) (log2 ratio); higher = more soluble; conditions: cell cycle stage: G1/S
[4] = cell cycle stage: early G1 (4.5 h after nocodazole release)
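For solubility change mitosis vs G1/S (difference of NP-40 vs SDS log2 ratios) in this document: synchronized HeLa Kyoto cells (double thymidine block for G1/S, nocodazole release for mitosis), protein amounts in NP-40 versus SDS lysates quantified by mass spectrometry, three biological replicates.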
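For solubility in G1/S (NP-40 vs SDS abundance) in this document: HeLa Kyoto cells arrested at G1/S by double thymidine block, proteins quantified by TMT10plex mass spectrometry in mild NP-40 versus SDS extracts, three biological replicates.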
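For thermal stability score vs G1/S (z-score of summed log2 fold changes over temperatures) in this document: synchronized HeLa Kyoto cells, proteins quantified by TMT10plex mass spectrometry, three biological replicates, mitosis taken 0.5 h after nocodazole release, G1/S directly after double thymidine block.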

MFSD12, sequence (chain, as listed by the source): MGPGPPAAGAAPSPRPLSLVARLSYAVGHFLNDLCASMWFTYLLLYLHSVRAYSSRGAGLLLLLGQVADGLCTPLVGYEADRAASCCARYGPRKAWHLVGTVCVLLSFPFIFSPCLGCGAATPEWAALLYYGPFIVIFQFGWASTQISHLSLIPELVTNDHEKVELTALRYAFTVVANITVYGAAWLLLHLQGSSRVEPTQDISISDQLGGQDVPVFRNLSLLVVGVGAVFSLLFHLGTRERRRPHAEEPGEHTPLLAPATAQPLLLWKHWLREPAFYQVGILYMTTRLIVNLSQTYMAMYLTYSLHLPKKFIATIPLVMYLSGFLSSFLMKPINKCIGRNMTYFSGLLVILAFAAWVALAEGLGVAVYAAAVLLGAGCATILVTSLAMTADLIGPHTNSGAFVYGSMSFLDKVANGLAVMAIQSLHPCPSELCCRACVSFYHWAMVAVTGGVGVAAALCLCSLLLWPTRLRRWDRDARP

Row | Substance | solubility change mitosis (log2) (HeLa Kyoto [1]) | thermal stability score (HeLa Kyoto [2]; [4]) | thermal stability score (HeLa Kyoto [2]; cell cycle stage: mitosis) | solubility in G1/S (log2) (HeLa Kyoto [3])
1 | MAGKAAAPGTAVLLVTANVGSLFDDPENLQKNWLREFYQVVHTHKPHFMALHCQEFGGKNYEASMSHVDKFVKELLSSDAMKEYNRARVYLDENYKSQEHFTALGSFYFLHESLKNIYQFDFKAKKYRKVAGKEIYSDTLESTPMLEKEKFPQDYFPECKWSRKGFIRTRWCIADCAFDLVNIHLFHDASNLVAWETSPSVYSGIRHKALGYVLDRIIDQRFEKVSYFVFGDFNFRLDSKSVVETLCTKATMQTVRAADTNEVVKLIFRESDNDRKVMLQLEKKLFDYFNQEVFRDNNGTALLEFDKELSVFKDRLYELDISFPPSYPYSEDARQGEQYMNTRCPAWCDRILMSPSAKELVLRSESEEKVVTYDHIGPNVCMGDHKPVFLAFRIMPGAGKPHAHVHKCCVVQ [INPP5A] | -0.17 | 0.56 | -0.257 | -0.359
2 | MAGVGDAAAPGEGGGGGVDGPQRDGRGEAEQPGGSGGQGPPPAPQLTETLGFYESDRRRERRRGRTELSLLRFLSAELTRGYFLEHNEAKYTERRERVYTCLRIPRELEKLMVFGIFLCLDAFLYVFTLLPLRVFLALFRLLTLPCYGLRDRRLLQPAQVCDILKGVILVICYFMMHYVDYSMMYHLIRGQSVIKLYIIYNMLEVADRLFSSFGQDILDALYWTATEPKERKRAHIGVIPHFFMAVLYVFLHAILIMVQATTLNVAFNSHNKSLLTIMMSNNFVEIKGSVFKKFEKNNLFQMSNSDIKERFTNYVLLLIVCLRNMEQFSWNPDHLWVLFPDVCMVIASEIAVDIVKHAFITKFNDITADVYSEYRASLAFDLVSSRQKNAYTDYSDSVARRMGFIPLPLAVLLIRVVTSSIKVQGILSYACVILFYFGLISLKVLNSIVLLGKSCQYVKEAKMEEKLSNPPATCTPGKPSSKSQNKCKPSQGLSTEENLSASITKQPIHQKENIIPLLVTSNSDQFLTTPDGDEKDITQDNSELKHRSSKKDLLEIDRFTICGNRID [TAPT1] | 0.0176 | -2.91 | -4.92 | -0.313
3 | MALFYVARYPGPDAAAAAGPEGAEAGAHGRARALLERLQSRARERQQQREPAQTEAAASTEPATRRRRRPRRRRRVNDAEPGSPEAPQGKRRKADGEDAGAESNEEAPGEPSAGSSEEAPGEPSAGSSEEAPGERSTSASAEAAPDGPALEEAAGPLVPGLVLGGFGKRKAPKVQPFLPRWLAEPNCVRRNVTEDLVPIEDIPDVHPDLQKQLRAHGISSYFPVQAAVIPALLESAACGFLVGRGGYRPSDLCVSAPTGSGKTLAFVIPVVQALLSRVVCHIRALVVLPTKELAQQVSKVFNIYTDATPLRVSLVTGQKSLAKEQESLVQKTADGYRCLADIVVATPGRLVDHIDQTPGFSLQQLRFLIIDEADRMIDSMHQSWLPRVVAAAFQSEDPADPCALLQRRQAQAVTAASTCCPQMPLQKLLFSATLTQNPEKLQQLGLHQPRLFSTGLAHRGLEDTDGDGDSGKYAFPVGLTHHYVPCSLSSKPLVVLHLVLEMGFSRVLCFTNSRENSHRLFLLVQAFGGVDVAEFSSRYGPGQRRMILKQFEQGKIQLLISTDATARGIDVQGVELVVNYDAPQYLRTYVHRVGRTARAGKTGQAFTLLLKVQERRFLRMLTEAGAPELQRHELSSKLLQPLVPRYEEALSQLEESVKEERKQRAA [DDX51] | 1.23 | -0.0942 | 1.3 | -1.48
4 | MARACLQAVKYLMFAFNLLFWLGGCGVLGVGIWLAATQGSFATLSSSFPSLSAANLLIITGAFVMAIGFVGCLGAIKENKCLLLTFFLLLLLVFLLEATIAILFFAYTDKIDRYAQQDLKKGLHLYGTQGNVGLTNAWSIIQTDFRCCGVSNYTDWFEVYNATRVPDSCCLEFSESCGLHAPGTWWKAPCYETVKVWLQENLLAVGIFGLCTALVQILGLTFAMTMYCQVVKADTYCA [TSPAN4] | 0.125 | -5.28e-17 | 1.16e-18 | -0.165
5 | MATIEEIAHQIIEQQMGEIVTEQQTGQKIQIVTALDHNTQGKQFILTNHDGSTPSKVILARQDSTPGKVFLTTPDAAGVNQLFFTTPDLSAQHLQLLTDNSPDQGPNKVFDLCVVCGDKASGRHYGAVTCEGCKGFFKRSIRKNLVYSCRGSKDCIINKHHRNRCQYCRLQRCIAFGMKQDSVQCERKPIEVSREKSSNCAASTEKIYIRKDLRSPLTATPTFVTDSESTRSTGLLDSGMFMNIHPSGVKTESAVLMTSDKAESCQGDLSTLANVVTSLANLGKTKDLSQNSNEMSMIESLSNDDTSLCEFQEMQTNGDVSRAFDTLAKALNPGESTACQSSVAGMEGSVHLITGDSSINYTEKEGPLLSDSHVAFRLTMPSPMPEYLNVHYIGESASRLLFLSMHWALSIPSFQALGQENSISLVKAYWNELFTLGLAQCWQVMNVATILATFVNCLHNSLQQDKMSTERRKLLMEHIFKLQEFCNSMVKLCIDGYEYAYLKAIVLFSPDHPSLENMEQIEKFQEKAYVEFQDYITKTYPDDTYRLSRLLLRLPALRLMNATITEELFFKGLIGNIRIDSVIPHILKMEPADYNSQIIGHSI [NR2C1] | -0.0241 | 0.319 | 0.185 | 0.173
6 | MEEEDEEARALLAGGPDEADRGAPAAPGALPALCDPSRLAHRLLVLLLMCFLGFGSYFCYDNPAALQTQVKRDMQVNTTKFMLLYAWYSWPNVVLCFFGGFLIDRVFGIRWGTIIFSCFVCIGQVVFALGGIFNAFWLMEFGRFVFGIGGESLAVAQNTYAVSWFKGKELNLVFGLQLSMARIGSTVNMNLMGWLYSKIEALLGSAGHTTLGITLMIGGITCILSLICALALAYLDQRAERILHKEQGKTGEVIKLTDVKDFSLPLWLIFIICVCYYVAVFPFIGLGKVFFTEKFGFSSQAASAINSVVYVISAPMSPVFGLLVDKTGKNIIWVLCAVAATLVSHMMLAFTMWNPWIAMCLLGLSYSLLACALWPMVAFVVPEHQLGTAYGFMQSIQNLGLAIISIIAGMILDSRGYLFLEVFFIACVSLSLLSVVLLYLVNRAQGGNLNYSARQREEIKFSHTE [MFSD1] | -0.327 | -0.307 | -0.166 | -0.268
7 | MEGVSALLARCPTAGLAGGLGVTACAAAGVLLYRIARRMKPTHTMVNCWFCNQDTLVPYGNRNCWDCPHCEQYNGFQENGDYNKPIPAQYLEHLNHVVSSAPSLRDPSQPQQWVSSQVLLCKRCNHHQTTKIKQLAAFAPREEGRYDEEVEVYRHHLEQMYKLCRPCQAAVEYYIKHQNRQLRALLLSHQFKRREADQTHAQNFSSAVKSPVQVILLRALAFLACAFLLTTALYGASGHFAPGTTVPLALPPGGNGSATPDNGTTPGAEGWRQLLGLLPEHMAEKLCEAWAFGQSHQTGVVALGLLTCLLAMLLAGRIRLRRIDAFCTCLWALLLGLHLAEQHLQAASPSWLDTLKFSTTSLCCLVGFTAAVATRKATGPRRFRPRRFFPGDSAGLFPTSPSLAIPHPSVGGSPASLFIPSPPSFLPLANQQLFRSPRRTSPSSLPGRLSRALSLGTIPSLTRADSGYLFSGSRPPSQVSRSGEFPVSDYFSLLSGSCPSSPLPSPAPSVAGSVASSSGSLRHRRPLISPARLNLKGQKLLLFPSPPGEAPTTPSSSDEHSPHNGSLFTMEPPHVPRKPPLQDVKHALDLRSKLERGSACSNRSIKKEDDSSQSSTCVVDTTTRGCSEEAATWRGRFGPSLVRGLLAVSLAANALFTSVFLYQSLR [TMEM201] | 0.283 | 0.522 | 0.638 | -0.162
8 | MELRARGWWLLCAAAALVACARGDPASKSRSCGEVRQIYGAKGFSLSDVPQAEISGEHLRICPQGYTCCTSEMEENLANRSHAELETALRDSSRVLQAMLATQLRSFDDHFQHLLNDSERTLQATFPGAFGELYTQNARAFRDLYSELRLYYRGANLHLEETLAEFWARLLERLFKQLHPQLLLPDDYLDCLGKQAEALRPFGEAPRELRLRATRAFVAARSFVQGLGVASDVVRKVAQVPLGPECSRAVMKLVYCAHCLGVPGARPCPDYCRNVLKGCLANQADLDAEWRNLLDSMVLITDKFWGTSGVESVIGSVHTWLAEAINALQDNRDTLTAKVIQGCGNPKVNPQGPGPEEKRRRGKLAPRERPPSGTLEKLVSEAKAQLRDVQDFWISLPGTLCSEKMALSTASDDRCWNGMARGRYLPEVMGDGLANQINNPEVEVDITKPDMTIRQQIMQLKIMTNRLRSAYNGNDVDFQDASDDGSGSGSGDGCLDDLCSRKVSRKSSSSRTPLTHALPGLSEQEGQKTSAASCPQPPTFLLPLLLFLALTVARPRWR [GPC1] | -0.378 | 1.52 | 3.51 | -0.193
9 | MEQAPPDPERQLQPAPLEPLGSPDAGLGAAVGKEAEGAGEESSGVDTMTHNNFWLKKIEISVSEAEKRTGRNAMNMQETYTAYLIETRSVEHTDGQSVLTDSLWRRYSEFELLRSYLLVYYPHIVVPPLPEKRAEFVWHKLSADNMDPDFVERRRIGLENFLLRIASHPILCRDKIFYLFLTQEGNWKETVNETGFQLKADSRLKALNATFRVKNPDKRFTDLKHYSDELQSVISHLLRVRARVADRLYGVYKVHGNYGRVFSEWSAIEKEMGDGLQSAGHHMDVYASSIDDILEDEEHYADQLKEYLFYAEALRAVCRKHELMQYDLEMAAQDLASKKQQCEELVTGTVRTFSLKGMTTKLFGQETPEQREARIKVLEEQINEGEQQLKSKNLEGREFVKNAWADIERFKEQKNRDLKEALISYAVMQISMCKKGIQVWTNAKECFSKM [SNX4] | -0.0064 | 0.919 | 0.324 | 0.0889
10 | MEREPGAAGVRRALGRRLEAVLASRSEANAVFDILAVLQSEDQEEIQEAVRTCSRLFGALLERGELFVGQLPSEEMVMTGSQGATRKYKVWMRHRYHSCCNRLGELLGHPSFQVKELALSALLKFVQLEGAHPLEKSKWEGNYLFPRELFKLVVGGLLSPEEDQSLLLSQFREYLDYDDTRYHTMQAAVDAVARVTGQHPEVPPAFWNNAFTLLSAVSLPRREPTVSSFYVKRAELWDTWKVAHLKEHRRVFQAMWLSFLKHKLPLSLYKKVLLIVHDAILPQLAQPTLMIDFLTRACDLGGALSLLALNGLFILIHKHNLEYPDFYRKLYGLLDPSVFHVKYRARFFHLADLFLSSSHLPAYLVAAFAKRLARLALTAPPEALLMVLPFICNLLRRHPACRVLVHRPHGPELDADPYDPGEEDPAQSRALESSLWELQALQRHYHPEVSKAASVINQALSMPEVSIAPLLELTAYEIFERDLKKKGPEPVPLEFIPAQGLLGRPGELCAQHFTLS [NOC4L] | 0.579 | -3.25e-17 | 3.03e-17 | -1.47
11 | MFSD12 | -0.237 | 0.154 | 0.3 | -0.246
12 | MGAVLGVFSLASWVPCLCSGASCLLCSCCPNSKNSTVTRLIYAFILLLSTVVSYIMQRKEMETYLKKIPGFCEGGFKIHEADINADKDCDVLVGYKAVYRISFAMAIFFFVFSLLMFKVKTSKDLRAAVHNGFWFFKIAALIGIMVGSFYIPGGYFSSVWFVVGMIGAALFILIQLVLLVDFAHSWNESWVNRMEEGNPRLWYAALLSFTSAFYILSIICVGLLYTYYTKPDGCTENKFFISINLILCVVASIISIHPKIQEHQPRSGLLQSSLITLYTMYLTWSAMSNEPDRSCNPNLMSFITRITAPTLAPGNSTAVVPTPTPPSKSGSLLDSDNFIGLFVFVLCLLYSSIRTSTNSQVDKLTLSGSDSVILGDTTTSGASDEEDGQPRRAVDNEKEGVQYSYSLFHLMLCLASLYIMMTLTSWYSPDAKFQSMTSKWPAVWVKISSSWVCLLLYVWTLVAPLVLTSRDFS [SERINC3] | 0.0994 | -2.7 | -4.19 | -0.0916
13 | MGDKGTRVFKKASPNGKLTVYLGKRDFVDHIDLVDPVDGVVLVDPEYLKERRVYVTLTCAFRYGREDLDVLGLTFRKDLFVANVQSFPPAPEDKKPLTRLQERLIKKLGEHAYPFTFEIPPNLPCSVTLQPGPEDTGKACGVDYEVKAFCAENLEEKIHKRNSVRLVIRKVQYAPERPGPQPTAETTRQFLMSDKPLHLEASLDKEIYYHGEPISVNVHVTNNTNKTVKKIKISVRQYADICLFNTAQYKCPVAMEEADDTVAPSSTFCKVYTLTPFLANNREKRGLALDGKLKHEDTNLASSTLLREGANREILGIIVSYKVKVKLVVSRGGLLGDLASSDVAVELPFTLMHPKPKEEPPHREVPENETPVDTNLIELDTNDDDIVFEDFARQRLKGMKDDKEEEEDGTGSPQLNNR [ARRB1] | -0.0694 | -0.748 | -0.986 | 0.139
